Results on three molecules are retold here after publication PMC3871824, “In vitro binding of Sorghum bicolor transcription factors ABI4 and ABI5 to a conserved region of a GA 2-OXIDASE promoter: possible role of this interaction in the expression of seed dormancy”.

Data set [1] deals with T1, SbABI5 (rABI5) (Sorghum bicolor (inbred line IS9530), UniProt C5XSV4 1-346).
T1 sequence: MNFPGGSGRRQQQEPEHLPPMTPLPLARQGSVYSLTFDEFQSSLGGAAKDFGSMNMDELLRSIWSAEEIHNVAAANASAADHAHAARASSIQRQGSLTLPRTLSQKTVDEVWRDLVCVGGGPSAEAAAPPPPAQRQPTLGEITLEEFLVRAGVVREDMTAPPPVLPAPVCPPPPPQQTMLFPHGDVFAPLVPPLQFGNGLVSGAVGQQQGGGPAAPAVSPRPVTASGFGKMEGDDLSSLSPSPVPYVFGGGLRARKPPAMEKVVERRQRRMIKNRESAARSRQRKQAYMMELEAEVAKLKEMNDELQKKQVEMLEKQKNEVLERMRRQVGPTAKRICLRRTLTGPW
Description: EMSA; 25 mM Tris-HCl pH 7.4, 30 mM KCl, 3 mM MgCl2, 0.5 mM EDTA, 14 mM 2-mercaptoethanol, 1 mM DTT, 10% glycerol, 0.05% NP-40, 10 ug/ml BSA, 50 ug/ml salmon sperm DNA, 40 ng probe, 30 min, room temperature. To be noted: protein: recombinant; tags: C-terminal His (pET24a); chain copies: 2; label: 5'-biotin on strand 1; blunt. Background: A gel shift assay detects complexes by their altered migration in electrophoresis.

Data set [2] deals with T2, SbABI4 (rABI4) (Sorghum bicolor (inbred line IS9530), UniProt A0A1B6P7N1 1-257). Description: EMSA; additional retarded complex; 25 mM Tris-HCl pH 7.4, 30 mM KCl, 3 mM MgCl2, 0.5 mM EDTA, 14 mM 2-mercaptoethanol, 1 mM DTT, 10% glycerol, 0.05% NP-40, 10 ug/ml BSA, 50 ug/ml salmon sperm DNA, 40 ng probe, 30 min, room temperature. The following applies: protein: recombinant; tags: C-terminal His (pET24a); label: 5'-biotin on strand 1; blunt.
T2 sequence (A0A1B6P7N1 entry or part of it): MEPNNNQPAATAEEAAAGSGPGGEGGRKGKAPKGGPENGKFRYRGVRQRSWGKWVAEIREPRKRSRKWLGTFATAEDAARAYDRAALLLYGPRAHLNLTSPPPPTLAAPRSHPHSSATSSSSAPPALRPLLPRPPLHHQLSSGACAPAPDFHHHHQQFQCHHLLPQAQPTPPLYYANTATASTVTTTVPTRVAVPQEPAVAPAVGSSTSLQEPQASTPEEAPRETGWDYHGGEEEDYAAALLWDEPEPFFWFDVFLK

Data set [3] has as its target T2, SbABI4 (rABI4). Description: competition; 200-600 ng vs 40 ng N1; no effect; 25 mM Tris-HCl pH 7.4, 30 mM KCl, 3 mM MgCl2, 0.5 mM EDTA, 14 mM 2-mercaptoethanol, 1 mM DTT, 10% glycerol, 0.05% NP-40, 10 ug/ml BSA, 50 ug/ml salmon sperm DNA, 40 ng probe, 30 min, room temperature. The following applies: protein: recombinant; tags: C-terminal His (pET24a); blunt.
The target in data set [4] is T1, SbABI5 (rABI5). The description is as above. To be noted: protein: recombinant; tags: C-terminal His (pET24a); chain copies: 2; blunt.
For data set [5], the target named is T2, SbABI4 (rABI4). Description: EMSA; five complexes; 25 mM Tris-HCl pH 7.4, 30 mM KCl, 3 mM MgCl2, 0.5 mM EDTA, 14 mM 2-mercaptoethanol, 1 mM DTT, 10% glycerol, 0.05% NP-40, 10 ug/ml BSA, 50 ug/ml salmon sperm DNA, 40 ng probe, 30 min, room temperature. The following applies: protein: recombinant; tags: C-terminal His (pET24a); label: 5'-biotin on strand 1; blunt.

The target of data set [6] is T1, SbABI5 (rABI5). Description: EMSA; four complexes; 25 mM Tris-HCl pH 7.4, 30 mM KCl, 3 mM MgCl2, 0.5 mM EDTA, 14 mM 2-mercaptoethanol, 1 mM DTT, 10% glycerol, 0.05% NP-40, 10 ug/ml BSA, 50 ug/ml salmon sperm DNA, 40 ng probe, 30 min, room temperature. To be noted: protein: recombinant; tags: C-terminal His (pET24a); chain copies: 2; label: 5'-biotin on strand 1; blunt.

B1: SbGA2ox3 probe a (intact ABRE and CE) (dsDNA)
DNA 1: GGGCGCCGTGGGAAAACTGCTATTGGCCGGCGTGCCATCGCCTCGTATCGTATGCGTCTCCCATGGAGCCATGCATGCAGCGCGGCGGGCCGACCTGCCACCGGTGGATCGCGTCCGGACACGTCGCGCCC
DNA 2: GGGCGCGACGTGTCCGGACGCGATCCACCGGTGGCAGGTCGGCCCGCCGCGCTGCATGCATGGCTCCATGGGAGACGCATACGATACGAGGCGATGGCACGCCGGCCAATAGCAGTTTTCCCACGGCGCCC
With B1, the binding result with SbABI5 (rABI5) [1] and with SbABI4 (rABI4) [2] was “binds” in each case.

B2: SbGAMyb non-specific competitor 183 bp (dsDNA)
DNA 1: TCTGGGAAGAACCAACAACCATCGGTCCGAAGTTCAAGTTCTTCTGCTGGCACACCTTGTGAGACTACTACGGTGGTTAGCCCAGAGTTTGATATGGGCCAGGAATATTGGGAAGAACAGCCTGGTTCTTTCCTCAGTGAATATGCTCATTTTAGTGGAAATTCTTTGACCGAATCCACTCCT
DNA 2: AGGAGTGGATTCGGTCAAAGAATTTCCACTAAAATGAGCATATTCACTGAGGAAAGAACCAGGCTGTTCTTCCCAATATTCCTGGCCCATATCAAACTCTGGGCTAACCACCGTAGTAGTCTCACAAGGTGTGCCAGCAGAAGAACTTGAACTTCGGACCGATGGTTGTTGGTTCTTCCCAGA
With B2, the binding result with SbABI4 (rABI4) [3] and with SbABI5 (rABI5) [4] was “no binding” throughout.

B3: AtEm6 promoter probe 186 bp (dsDNA)
DNA 1: AGTTAAAGAACACGCGGCGAAGAAGTACGGCCACTACCACGTTCAAAGTATACGTCAGCTAATAAAGTCAGACACGTGGCATGTCACCAAGAAAGAAGAGCATACGTATGACGTACCGATTGTCCCTGAGTCACCACGTCGAACATCCACGATGCAACACAACCAAAACGCCCTCCGGATTGA
DNA 2: TCAATCCGGAGGGCGTTTTGGTTGTGTTGCATCGTGGATGTTCGACGTGGTGACTCAGGGACAATCGGTACGTCATACGTATGCTCTTCTTTCTTGGTGACATGCCACGTGTCTGACTTTATTAGCTGACGTATACTTTGAACGTGGTAGTGGCCGTACTTCTTCGCCGCGTGTTCTTTAACT
B3: the binding result with SbABI4 (rABI4) [5] and with SbABI5 (rABI5) [6] was “binds” throughout.
